{
  "source": "paper PMC9555795",
  "about": "“Divergent kinase WNG1 is regulated by phosphorylation of an atypical activation sub-domain” (Biochemical Journal, 2022)",
  "target": "the molecule itself",
  "assay": "SAXS; protein diluted from a 305 uM stock in 20 mM HEPES pH 7.5, 100 mM NaCl; DAMMIN envelope, SASREF P2 tetramer model compared with the crystal hexamer",
  "data": [
    {"protein": "BPK1 (residues 61-377) (domain or fragment, BPK1, pseudokinase of the WNG family, Toxoplasma gondii, residues 61-377; Cloned in pET28a with the SUMO tag; Purified on Ni-NTA as for WNG1, so a His tag probably went off with the SUMO tag; The species is stated for the WNG family in general, not for BPK1 by name; also called WNG family pseudokinase; source: Rosetta 2 (DE3) cells, purified (Ni-NTA, ULP1 digestion, anion exchange, SEC)) SVYRIPLADMTFWSWMSYLKELPDIDESRNPILKRLLSGSFLRRDGSTTVNVRVPARELVRLLSLTPEQQREGVSAKVRLINLLDPKYSVYEPYLYREILPKRSPLLLPSLGEYRGAFLTYIFHPLSKGLVGDMLETGRSHPDVQVLAANMVAALKSLHNLGLLHRSIELNSFSVLPDGTVVLGGLDTAAPIGTETRLWVGFFGQETAPEIDRNFLADLALTQGRHTVKSDVYSLGVAFRNLVQLLGNGNIGPEDRGAVRQDHLELLDKLSQKMIEEEPGNRPTIEEIMKDPLFEGLNFEDIEEGKARPFRYKQNRL", "values": [
      {"measurement": "stoichiometry N", "value": 4}
    ]}
  ]
}
